Reference: PMC10888616, “Pleiotropic Effects of PhaR Regulator in Bradyrhizobium diazoefficiens Microaerobic Metabolism”
Values belong to the molecule of their own block, whether it stands above or below them.

How the values were obtained:
[1] = target: recombinant untagged PhaR protein of Bradyrhizobium diazoefficiens (Bradyrhizobium diazoefficiens); experiment: SEC; Superdex 75 10/300 GL, mIVT buffer at pH 8 (40 mM Tris-HCl, 150 mM KCl, 0.1 mM EDTA, 0.1 mM DTT), 200 uL of untagged PhaR at 5 to 30 uM, 0.5 mL/min; tetramer to monomers; the monomer peak increased at lower concentrations
PhaR [2] = target: T1, PhaR (Bradyrhizobium diazoefficiens USDA 110, UniProt Q89XT0 1-197); experiment: EMSA; shift at 0.5 uM PhaR; mIVT buffer: 40 mM Tris-HCl pH 7.0, 150 mM KCl, 0.1 mM EDTA, 0.1 mM DTT; 10 uL, 2 ng DNA, 0-2 uM PhaR, 30 min room temperature; 6% native PAGE 0.5X TBE, SYBR Gold; conditions: protein: recombinant; tags: untagged (C-terminal intein-CBD removed, IMPACT); chain copies: 4; blunt
T1 sequence: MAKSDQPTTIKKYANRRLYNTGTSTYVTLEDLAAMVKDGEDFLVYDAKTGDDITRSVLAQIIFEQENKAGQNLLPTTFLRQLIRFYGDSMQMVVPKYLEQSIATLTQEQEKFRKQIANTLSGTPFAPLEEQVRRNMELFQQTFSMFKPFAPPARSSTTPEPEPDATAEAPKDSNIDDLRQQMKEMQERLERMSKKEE

PhaR [3] = target: T1, PhaR; experiment: EMSA; mutation did not affect interaction at 1-2 uM PhaR; mIVT buffer: 40 mM Tris-HCl pH 7.0, 150 mM KCl, 0.1 mM EDTA, 0.1 mM DTT; 10 uL, 2 ng DNA, 0-2 uM PhaR, 30 min room temperature; 6% native PAGE 0.5X TBE, SYBR Gold; conditions: protein: recombinant; tags: untagged (C-terminal intein-CBD removed, IMPACT); chain copies: 4; blunt
PhaR [4] = target: T1, PhaR; experiment: EMSA; mIVT buffer: 40 mM Tris-HCl pH 7.0, 150 mM KCl, 0.1 mM EDTA, 0.1 mM DTT; 10 uL, 2 ng DNA, 0-2 uM PhaR, 30 min room temperature; 6% native PAGE 0.5X TBE, SYBR Gold; conditions: protein: recombinant; tags: untagged (C-terminal intein-CBD removed, IMPACT); chain copies: 4; blunt

stoichiometry N [1]: 4
Molecule: recombinant untagged PhaR protein of Bradyrhizobium diazoefficiens (natural protein)

B1: phaP1 67 bp wild type (5155_2) (dsDNA)
DNA 1: GATCTAGTTTTTGTGCGACGCACAAGATTCTTGACTTTTTTGTGCGTTGCACTAATTGTGGGCAGAG
DNA 2: CTCTGCCCACAATTAGTGCAACGCACAAAAAAGTCAAGAATCTTGTGCGTCGCACAAAAACTAGATC
binding result (PhaR [2]): binds

B2: blr4358 oligo, long PhaR box mutated (blr4358_EMSA_2) (dsDNA)
DNA 1: CGCCGGATCAGCAATAAAATATAAATTAATATAAGAAGGTCTCCAA
DNA 2: TTGGAGACCTTCTTATATTAATTTATATTTTATTGCTGATCCGGCG
binding result (PhaR [3]): binds

B3: blr4358 oligo wild type (blr4358_EMSA_1) (dsDNA)
DNA 1: CGCCGGATCAGCCCGCCAAGATCAAGGCCGCGAAGAAGGTCTCCAA
DNA 2: TTGGAGACCTTCTTCGCGGCCTTGATCTTGGCGGGCTGATCCGGCG
binding result (PhaR [4]): binds
